Consider four molecules from patent publication US20220064276A1 (SCHOLAR ROCK, published 2022).

Test [1] has as its target T1, human LTBP1-proTGFβ1 complex (human, UniProt Q14766 347-1721; P01137 30-390).
T1 construct: Large latent complex: one presenting molecule disulfide-linked to a proTGFβ1 dimer; also called Hu LTBP1-proTGFβ1; huLTBP1 proTGFβ1
As to the kind of experiment: Octet BLI, IgG captured. Summed up: (§1)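 IgG captured on the Octet biosensor, with complex antigen associating for 3 min and dissociating for 5 min in kinetics buffer. KD was fitted with a 1:1 binding model for each antibody–antigen pair.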
On the technique in general: BLI is a label-free optical method that tracks binding on a fibre tip over time.

The target in test [2] is T2, mouse LTBP3-proTGFβ1 complex (mouse, UniProt Q61810 41-1245; P04202 30-390, limits assumed).
T2 construct: Exemplary entries; also called Mo LTBP3-proTGFβ1; Murine LTBP3 proTGFb1
Put plainly: Octet BLI, IgG captured. Summed up:
as §1

Test [3] has as its target T3, mouse LTBP1-proTGFβ1 complex (mouse, UniProt Q8CG19 339-1712; P04202 30-390).
T3 construct: Exemplary entries; In the cell assays expressed from mouse LTBP1S and mouse proTGFb1 plasmids in LN229 cells; also called Mo LTBP1-proTGFβ1; MuLTBP1-ProTGFb1
As to the kind of experiment: Octet BLI, IgG captured. Summed up:
as §1

Test [4] concerns the target T4, human LTBP3-proTGFβ1 complex (human, UniProt Q9NS15 44-1303; P01137 30-390, limits assumed).
T4 construct: Exemplary entries; also called Hu LTBP3-proTGFβ1; huLTBP3 proTGFb1
As to the kind of experiment: Octet BLI, IgG captured. Summed up: as §1

Test [5] has as its target T5, human GARP-proTGFβ1 complex (human, UniProt Q14392 18-627; P01137 30-390, limits assumed).
T5 construct: Exemplary entries; also called Hu GARP-proTGFβ1; huGARP proTGFb1
As to the kind of experiment: Octet (bio-layer interferometry), response at 200 nM antigen; 0.1 nm cutoff designates meaningful binding. On the procedure: This experiment was performed at 200, 100, 50, and 25 nM human GARP proTGFb1 and human LTBP1 proTGFbl. […] Surface plasmon resonance (SPR)-based assays

Test [6] has as its target T6, LTBP-proTGFβ1: transfected human proTGFβ1 presented by endogenous LTBP1/3 of LN229 cells (human). As to the kind of experiment: cell-based or functional assay.
Test [7] has as its target T3, mouse LTBP1-proTGFβ1 complex. As to the kind of experiment: cell-based or functional assay.
In test [8] the target is T1, human LTBP1-proTGFβ1 complex. Put plainly: Octet binning; competitor (immobilized second antibody) SR-AB13. On the procedure: (§2) 500 nM of human LTBP1-proTGFb1 complex was pre-incubated with 1 μM of each test antibody. After an overnight incubation, the LTBP1-proTGFβ1+first antibody was tested for binding to a second antibody which was immobilized to an Anti-Human IgG Fc Capture (AHC) sensor tip at 67 nM. The sensor tip was blocked with a negative control antibody (HuNeg) before seeing the LTBP1-proTGFβ1+first antibody.
(§3) Normalized responses less than 70% or less than 0.7 of the uninhibited interaction were considered antibodies that cross block.

Test [9] addresses T5, human GARP-proTGFβ1 complex. Put plainly: Octet (bio-layer interferometry), yeast expressed IgG1Agly antibody, antigen at a single 100 nM per Example 6.
For test [10], the target named is T1, human LTBP1-proTGFβ1 complex. Put plainly: Octet (bio-layer interferometry), yeast expressed IgG1Agly antibody, antigen at a single 100 nM per Example 6, 1:1 fit; value printed under the panel.
Test [11] deals with T2, mouse LTBP3-proTGFβ1 complex. The description is as above.
Test [12] has as its target T3, mouse LTBP1-proTGFβ1 complex. Described as above.
The target in test [13] is T2, mouse LTBP3-proTGFβ1 complex. Put plainly: Octet BLI, IgG captured. On the procedure: (§4) LTBP complex-specific antibodies from the first round of affinity maturation/optimization (SR-AB14, SR-AB16, SR-AB17, SR-AB18, SR-AB19) were selected for a second round of affinity maturation/optimization (i.e., CDR-H3 mutagenesis as described herein) and particular progeny antibodies (SR-AB20, SR-AB21, SR-AB22, SR-AB23, SR-AB24, SR-AB25, SR-AB26, SR-AB27, SR-AB28, and SR-AB29) were assessed for their ability to bind various proTGFβ1 constructs. Binding affinities of the optimized antibodies were measured by Octet against human LTBP1-proTGFβ1, human LTBP3-proTGFbl, mouse LTBP1-proTGFβ1, mouse LTBP3-proTGFbl, and GARP-proTGFβ1 complexes, essentially as described in Example 6. […] The antigens were allowed to associate for 3 minutes followed by a 5-minute dissociation. Kinetics buffer (ForteBio®) was used throughout the experiment, and KD was determined using a 1:1 fitting model for each antibody antigen pair.
This is another data set of the same source.

In test [14] the target is T3, mouse LTBP1-proTGFβ1 complex. As to the kind of experiment: Octet BLI, IgG captured. As to the method: as §4
This is another data set of the same source.

For test [15], the target named is T1, human LTBP1-proTGFβ1 complex. Put plainly: Octet binning; competitor (immobilized second antibody) SR-AB2. As to the method:
as §2, §3

Test [16] addresses T6, LTBP-proTGFβ1: transfected human …. Put plainly: cell-based or functional assay. This is another data set of the same source.
The target in test [17] is T3, mouse LTBP1-proTGFβ1 complex. Put plainly: cell-based or functional assay. This is another data set of the same source.
In test [18] the target is T1, human LTBP1-proTGFβ1 complex. As to the kind of experiment: Octet binning; competitor (immobilized second antibody) SR-AB10. On the procedure:
as §2, §3

The target of test [19] is T6, LTBP-proTGFβ1: transfected human …. Put plainly: cell-based or functional assay. The source holds these as a separate data set.
Test [20] concerns the target T3, mouse LTBP1-proTGFβ1 complex. Put plainly: cell-based or functional assay. The source holds these as a separate data set.
Test [21] deals with T1, human LTBP1-proTGFβ1 complex. As to the kind of experiment: Octet binning; competitor (immobilized second antibody) SR-AB1. As to the method:
as §2, §3

The target in test [22] is T2, mouse LTBP3-proTGFβ1 complex. Put plainly: SPR Biacore 8K, Fab over captured antigen; mean of 2. As to the method: (§5) A Biacore 8K system was employed to determine the monovalent binding affinity and the kinetic parameters for antigen binding of test antibodies. Association and dissociation kinetics of Fab fragments SR-AB42-HuFab, SR-AB63-HuFab and SR-AB43-HuFab to antigen complexes were measured, and resulting ka, kd and KD are provided below. Briefly, the binding kinetics were evaluated by surface plasmon resonance using Biacore 8K (GE Healthcare). Biotinylated capture antigens were immobilized to the chip (10 nM, ˜200 RU loading). A Biotin CAPture sensor chip was used to capture the biotinylated antigens. […] 0 nM was used as a reference. […] 0 nM was used as a reference. Multi-cycle kinetics was employed where each analyte concentration was injected in a separate cycle and the sensor chip surface was regenerated after each cycle. A11 the assays were carried out in freshly prepared 1× HBS-EP+ buffer (10 mM HEPES, 150 mM NaCl, 3 mM EDTA, 0.05% Tween20, pH 7.4). Data were fit globally to a 1:1 binding model to obtain the kinetic parameters. The sensorgram for 0 nM analyte concentration was used as reference.
Background: Surface plasmon resonance follows binding to a sensor surface in real time, without labels.

The target of test [23] is T1, human LTBP1-proTGFβ1 complex. As to the kind of experiment: SPR Biacore 8K, Fab over captured antigen. On the procedure:
as §5

Test [24] shares this target. Put plainly: Octet BLI, IgG captured. On the procedure: as §4
The source holds these as a separate data set.

A word on the Kd: it is the concentration at which binding is half-saturated. A low value points to a tighter complex. By koff is commonly meant a measure of how fast the partners let go of each other. Higher therefore signals a short-lived complex. Usually kon stands for a measure of how fast the partners come together. High values mean faster complex formation, low ones slower complex formation.

Substitutions are numbered along the chain they refer to. Like-named read-outs stand apart in the source and are kept apart here.

T6 sequence (P01137 30-390): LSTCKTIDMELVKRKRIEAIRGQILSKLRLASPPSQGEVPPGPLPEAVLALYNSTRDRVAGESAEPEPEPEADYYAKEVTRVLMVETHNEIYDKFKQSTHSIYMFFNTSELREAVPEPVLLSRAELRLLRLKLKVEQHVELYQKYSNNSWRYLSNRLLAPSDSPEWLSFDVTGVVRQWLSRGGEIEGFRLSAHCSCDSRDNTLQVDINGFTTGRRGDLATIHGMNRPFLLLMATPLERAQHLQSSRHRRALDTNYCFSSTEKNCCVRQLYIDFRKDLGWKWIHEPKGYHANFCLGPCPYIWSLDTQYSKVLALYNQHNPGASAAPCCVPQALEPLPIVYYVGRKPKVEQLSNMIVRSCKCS
T3 sequence (Q8CG19 339-1712 limits assumed, chain 1 of 2): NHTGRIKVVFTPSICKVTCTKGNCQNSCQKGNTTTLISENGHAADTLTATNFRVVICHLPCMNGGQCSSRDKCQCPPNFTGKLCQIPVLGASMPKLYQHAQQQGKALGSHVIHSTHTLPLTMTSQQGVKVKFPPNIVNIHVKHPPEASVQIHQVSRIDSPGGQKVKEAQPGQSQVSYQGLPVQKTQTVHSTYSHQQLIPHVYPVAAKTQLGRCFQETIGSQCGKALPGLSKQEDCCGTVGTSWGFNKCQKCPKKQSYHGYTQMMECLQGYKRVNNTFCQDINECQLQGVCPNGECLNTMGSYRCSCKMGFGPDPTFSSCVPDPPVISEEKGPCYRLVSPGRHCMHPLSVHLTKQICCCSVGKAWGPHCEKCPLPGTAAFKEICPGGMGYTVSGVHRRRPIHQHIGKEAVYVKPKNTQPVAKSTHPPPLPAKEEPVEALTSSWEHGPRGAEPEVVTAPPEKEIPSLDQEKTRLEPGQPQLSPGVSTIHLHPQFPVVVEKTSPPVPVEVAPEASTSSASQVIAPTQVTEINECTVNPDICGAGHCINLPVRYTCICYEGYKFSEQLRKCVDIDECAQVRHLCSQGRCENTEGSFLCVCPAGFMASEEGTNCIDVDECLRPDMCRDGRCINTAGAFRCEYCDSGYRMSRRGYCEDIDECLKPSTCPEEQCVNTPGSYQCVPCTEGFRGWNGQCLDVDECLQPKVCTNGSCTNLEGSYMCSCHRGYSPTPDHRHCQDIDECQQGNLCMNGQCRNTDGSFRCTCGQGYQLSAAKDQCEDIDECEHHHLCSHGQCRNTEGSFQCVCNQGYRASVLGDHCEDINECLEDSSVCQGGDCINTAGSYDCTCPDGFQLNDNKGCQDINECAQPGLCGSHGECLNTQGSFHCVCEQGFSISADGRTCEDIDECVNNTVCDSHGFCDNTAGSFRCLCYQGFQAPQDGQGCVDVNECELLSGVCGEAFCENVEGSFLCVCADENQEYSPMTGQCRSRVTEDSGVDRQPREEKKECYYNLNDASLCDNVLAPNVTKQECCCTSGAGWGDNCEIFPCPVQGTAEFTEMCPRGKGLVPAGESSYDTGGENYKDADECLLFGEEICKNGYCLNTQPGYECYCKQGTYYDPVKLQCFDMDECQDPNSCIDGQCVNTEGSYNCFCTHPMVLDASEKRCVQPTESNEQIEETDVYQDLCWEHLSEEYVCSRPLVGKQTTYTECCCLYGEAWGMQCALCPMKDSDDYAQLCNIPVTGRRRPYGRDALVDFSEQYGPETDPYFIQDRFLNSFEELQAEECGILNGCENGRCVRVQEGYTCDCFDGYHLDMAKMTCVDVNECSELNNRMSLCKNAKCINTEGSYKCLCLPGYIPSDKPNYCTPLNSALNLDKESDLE
T3 sequence (P04202 30-390 limits assumed, chain 2 of 2): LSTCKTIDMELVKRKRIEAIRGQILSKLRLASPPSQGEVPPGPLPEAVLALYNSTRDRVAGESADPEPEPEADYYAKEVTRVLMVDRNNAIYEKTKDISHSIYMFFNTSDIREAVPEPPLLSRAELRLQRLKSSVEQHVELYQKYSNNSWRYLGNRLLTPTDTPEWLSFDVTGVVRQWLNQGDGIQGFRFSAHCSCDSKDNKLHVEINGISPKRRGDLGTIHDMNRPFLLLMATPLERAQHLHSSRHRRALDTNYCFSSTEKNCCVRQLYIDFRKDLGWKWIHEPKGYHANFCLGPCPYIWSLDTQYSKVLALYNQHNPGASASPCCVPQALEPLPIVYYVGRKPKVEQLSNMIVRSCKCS
T2 sequence (Q61810 other isoform, or with tags, fused parts or gaps limits assumed, chain 1 of 2): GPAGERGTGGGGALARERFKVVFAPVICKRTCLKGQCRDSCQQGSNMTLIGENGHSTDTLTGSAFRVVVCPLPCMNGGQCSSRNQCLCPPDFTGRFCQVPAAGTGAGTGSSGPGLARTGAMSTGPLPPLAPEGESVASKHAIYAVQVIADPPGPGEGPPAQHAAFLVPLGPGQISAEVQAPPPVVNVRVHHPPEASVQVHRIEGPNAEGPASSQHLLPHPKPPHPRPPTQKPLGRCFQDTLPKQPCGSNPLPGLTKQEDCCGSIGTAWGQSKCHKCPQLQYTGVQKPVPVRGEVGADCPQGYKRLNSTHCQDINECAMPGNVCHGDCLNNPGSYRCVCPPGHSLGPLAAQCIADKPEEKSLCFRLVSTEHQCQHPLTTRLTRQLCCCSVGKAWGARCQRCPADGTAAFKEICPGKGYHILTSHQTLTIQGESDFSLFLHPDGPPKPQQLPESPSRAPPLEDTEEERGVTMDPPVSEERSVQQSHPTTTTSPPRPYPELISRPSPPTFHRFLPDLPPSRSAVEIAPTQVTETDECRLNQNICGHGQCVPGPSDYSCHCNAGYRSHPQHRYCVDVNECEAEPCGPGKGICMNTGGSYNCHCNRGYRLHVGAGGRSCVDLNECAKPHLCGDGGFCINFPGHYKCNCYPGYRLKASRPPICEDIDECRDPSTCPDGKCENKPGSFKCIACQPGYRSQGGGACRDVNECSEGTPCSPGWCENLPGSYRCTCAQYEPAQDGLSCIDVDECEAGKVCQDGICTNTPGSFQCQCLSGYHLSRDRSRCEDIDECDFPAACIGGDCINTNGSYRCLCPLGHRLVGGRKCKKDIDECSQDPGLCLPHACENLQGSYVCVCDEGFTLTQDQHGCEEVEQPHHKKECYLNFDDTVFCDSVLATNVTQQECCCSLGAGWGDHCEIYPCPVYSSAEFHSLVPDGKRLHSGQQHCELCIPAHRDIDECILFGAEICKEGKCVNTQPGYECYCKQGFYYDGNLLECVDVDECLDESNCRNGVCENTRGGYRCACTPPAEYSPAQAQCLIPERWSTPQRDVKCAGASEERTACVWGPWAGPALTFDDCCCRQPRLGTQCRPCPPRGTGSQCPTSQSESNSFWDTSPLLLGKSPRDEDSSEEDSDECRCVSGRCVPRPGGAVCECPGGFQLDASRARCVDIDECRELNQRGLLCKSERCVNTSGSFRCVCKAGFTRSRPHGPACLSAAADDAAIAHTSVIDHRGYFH
T2 sequence (P04202 30-390 limits assumed, chain 2 of 2): as the sequence (P04202 30-390 limits assumed, chain 2 of 2) above
T1 sequence (Q14766 347-1721 limits assumed, chain 1 of 2): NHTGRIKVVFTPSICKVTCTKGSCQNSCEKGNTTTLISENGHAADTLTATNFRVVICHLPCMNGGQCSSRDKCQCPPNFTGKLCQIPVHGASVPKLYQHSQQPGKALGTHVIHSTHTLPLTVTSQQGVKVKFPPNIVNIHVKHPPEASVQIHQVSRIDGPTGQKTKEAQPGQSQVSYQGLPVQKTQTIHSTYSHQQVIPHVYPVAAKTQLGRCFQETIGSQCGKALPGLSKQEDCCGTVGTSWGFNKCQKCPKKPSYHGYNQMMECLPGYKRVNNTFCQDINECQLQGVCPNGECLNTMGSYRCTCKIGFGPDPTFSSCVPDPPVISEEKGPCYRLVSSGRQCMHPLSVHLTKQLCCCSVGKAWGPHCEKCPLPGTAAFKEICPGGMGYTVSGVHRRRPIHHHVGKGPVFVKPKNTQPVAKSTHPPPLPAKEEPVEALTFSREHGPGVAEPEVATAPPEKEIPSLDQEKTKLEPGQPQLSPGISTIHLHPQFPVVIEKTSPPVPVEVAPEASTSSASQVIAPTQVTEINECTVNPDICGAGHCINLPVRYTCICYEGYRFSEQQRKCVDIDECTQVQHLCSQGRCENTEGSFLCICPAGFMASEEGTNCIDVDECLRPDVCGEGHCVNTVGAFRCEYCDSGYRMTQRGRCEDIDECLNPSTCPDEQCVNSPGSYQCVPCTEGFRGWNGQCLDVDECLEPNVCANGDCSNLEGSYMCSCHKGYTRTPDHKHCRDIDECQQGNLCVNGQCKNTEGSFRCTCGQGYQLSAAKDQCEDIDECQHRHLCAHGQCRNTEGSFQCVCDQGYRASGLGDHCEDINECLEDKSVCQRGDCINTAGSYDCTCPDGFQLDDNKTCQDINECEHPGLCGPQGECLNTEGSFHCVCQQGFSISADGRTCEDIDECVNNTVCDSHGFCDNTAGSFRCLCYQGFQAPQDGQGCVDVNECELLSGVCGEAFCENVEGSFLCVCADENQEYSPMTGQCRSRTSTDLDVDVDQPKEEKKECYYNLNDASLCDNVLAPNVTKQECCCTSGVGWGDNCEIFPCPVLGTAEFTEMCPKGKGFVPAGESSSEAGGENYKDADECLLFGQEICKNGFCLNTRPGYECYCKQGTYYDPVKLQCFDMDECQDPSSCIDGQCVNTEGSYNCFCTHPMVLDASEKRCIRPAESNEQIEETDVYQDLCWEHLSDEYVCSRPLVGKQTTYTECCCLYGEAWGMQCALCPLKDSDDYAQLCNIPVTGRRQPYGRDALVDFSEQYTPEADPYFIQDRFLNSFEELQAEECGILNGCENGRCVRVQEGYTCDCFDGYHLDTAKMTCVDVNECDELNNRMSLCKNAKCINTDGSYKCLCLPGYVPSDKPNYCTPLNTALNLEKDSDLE
T1 sequence (P01137 30-390 limits assumed, chain 2 of 2): as the sequence (P01137 30-390) above

B1: SR-AB62 (antibody, IgG1, V domains shown)
VH: QLQLQESGPGLAKPSETLSLTCTVSGGSIRSSSYYWGWIRQPPGKGLEWIGSISYSATTYYNPSLKSRVTISVDTSKNQFSLKLSSVTAADTAVYYCASDPSYDSAAGMDVWGQGTTVTVSS
VL: DIQMTQSPSSLSASVGDRVTITCRASKVISSYLNWYQQKPGKAPKLLIYYASSLQSGVPSRFSGSGSGTDFTLTISSLQPEDFATYYCQQSNDWPFTFGGGTKVEIK
notes: Cycle 3, lineage SR-AB24
Consider B1, for which the Kd in test [1] came to 0.486 nM; in test [2] it was 3.37 nM; in [3] it was 0.609 nM; in [4], 0.368 nM. The koff in test [1] was 6.82e-05 s⁻¹; in test [4], 7.47e-05 s⁻¹. Moreover, the kon is 140000 M⁻¹ s⁻¹ in [1] and 203000 M⁻¹ s⁻¹ in [4]. Further, the binding result in test [5] was “no binding (tested: 200 nM)”. In addition, the “IC50, endogenous hLTBP assay (CAGA12 luciferase)” value (from here on “IC50, endogenous hLTBP assay”) in test [6] came to 8.68 nM. Besides, the “IC50, mLTBP1 assay (CAGA12 luciferase)” value in test [7] came out at 0.386 nM.

B2: SR-AB10 (antibody, IgG1, V domains shown)
VH: QLQLQESGGGVVQPGRSLRLSCAASGFTFNNYPIHWVRQAPGKGLEWVAVMSYDGINKYYADSVKGRFTISRDNSKNTLYLQMNSLRAEDTAVYYCARPRIAARRGGFDYWGQGTLVTVSS
VL: NFMLTQPHSVSESPGKTVTISCTRSSGNIDNNYVQWYQQRPGSSPTTVIYEDNQRPSGVPDRFSGSIDSSSNSASLTISGLKTEDEADYYCQSYDSDNQGVVFGGGTKLTVL
notes: Parent antibody
With B2, the normalized response in [8] is 1.27 fraction of uninhibited binding; in test [15], 1.53 fraction of uninhibited binding; in [18], 0.51 fraction of uninhibited binding; in test [21], 0.82 fraction of uninhibited binding. The binding result in test [9] is on record as “no binding (tested: 100 nM)”. Moreover, the Kd in [10] stood at 308 nM; in test [11] it was 86 nM; in [12], 79 nM; in [13] it was 23 nM; in test [14] it was 14.2 nM. In addition, the “IC50, endogenous hLTBP assay” value in [16] and in [19] was 3.64 nM each time. Moreover, the “IC50, mLTBP1 assay (CAGA12 luciferase)” value in test [17] and in [20] was 119 nM each time.

B3: SR-AB43-HuFab (Fab, V domains shown)
VH: QVQLVESGGGVVQPGRSLRLSCAASGFTFRSYVMHWVRQAPGKGLEWVAVISHEGSLKYYADSVKGRFTISRDNSKNTLYLQMNSLRAEDTAVYYCARPRIAARRGGFGYWGQGTLVTVSS
VL: B2 VL with N31Y, Q54V, G100R
notes: Human Fab; also called SR-AB43 Fab
Turning to B3, binding in test [22] was characterised by a dissociation constant (Kd) of 4.43 nM. In test [23], this molecule displayed a Kd of 0.276 nM, a koff of 0.000284 s⁻¹ and a kon of 1.03e+06 M⁻¹ s⁻¹.

B4: SR-AB22 (antibody, IgG1, V domains shown)
VH: B3 VH with R98V
VL: B2 VL
notes: Cycle 2, lineage SR-AB14
As for B4, the Kd in test [24] stood at 1.88 nM; in test [13], 1.56 nM; in [14] it was 2.43 nM. In addition, the “IC50, endogenous hLTBP assay” value in test [19] turned out to be 4.62 nM. For the same molecule, in [20], the “IC50, mLTBP1 assay (CAGA12 luciferase)” value was determined as 1.39 nM.
